How the values were obtained:
Candida albicans [1] = experiment: Microbial Growth Inhibition Test, broth microdilution optical method; type: cell-based; details: RPMI-MOPS
Protocol: (§1) The IC90 of psoriasin for several microorganisms was determined by Microbial Growth Inhibition Tests. The tests were performed using the Broth Microdilution Optical Method based on standardized protocols M27 (yeasts) and M38 (filamentous fungi) of the Clinical and Laboratory Standards Institute. […] MOPS, LB (Luria-Bertani), and TSB ([…]) medium types were used, depending on the species being tested. The absorbance was calibrated to each species, and was measured between 450 nm to 650 nm.

Lactobacillus saeki = experiment: as above; type: cell-based; details: TSB
Protocol: as §1

Escherichia coli = experiment: as above; type: cell-based; details: LB, TSB
Protocol: as §1

Lactococcus lactis = experiment: as above; type: cell-based; details: TSB
Protocol: as §1

Enterobacter cloacae = experiment: as above; type: cell-based; details: TSB
Protocol: as §1

Listeria monocytogenes = experiment: as above; type: cell-based; details: LB, TSB
Protocol: as §1

Aspergillus flavus [2] = experiment: Dose-response growth assay in 96 well plates, A. flavus in RPMI-MOPS; type: cell-based; details: A. flavus, 5,000 spores, absorbance 600 nm
Protocol: A. flavus A11 spores were seeded on 10 cm plates of YAG-agarose for 3-4 days in a humidified incubator at 30° C. After sporulation, fresh spores were collected with 5 ml DDW+0.2% Tween. Spores were then centrifuged at room temperatures (5 min, 4,000 RPM), and suspended in 5 ml DDW. The suspension was termed “A. flavus fresh stock”.
A. flavus fresh stock was diluted ×1000 using DDW, and the spores were counted using a cytometer to determine the stock spores' concentration. A. flavus fresh stock was used for one week after spore production before disposal.
(§2) RPMI-MOPS (RPMI Powder, 165 mM MOPS, and Pen/Strep solution (x100)) was inoculated with either 50,000 spores/ml of A. flavus, or 1 colony/10 ml of C. albicans. The inoculated RPMI-MOPS was poured into a Nunclone™ coated 96-well plate (100 μl per well), with the different treatments and controls. The 96-well plate was then incubated in a shaker/incubator plate-reader at 30° C. where the absorbance (600 nm) was monitored and measured every 10 minutes.
In order to evaluate the ability of recombinant His-psoriasin to inhibit the growth of Aspergillus flavus, 5,000 spores were incubated in a RPMI-MPS medium with variable concentrations of psoriasin added to each well. Fungi growth was monitored using an absorbance plate reader every 10 minutes at 600 nm.

[3] = Thermal stability of psoriasin, microbial growth inhibition test (CLSI M27/M38); type: cell-based; details: stock 36 mg/mL in 1×PBS, 4° C to 84° C for one hour
Protocol: In order to assess its thermal stability, psoriasin stock (36 mg/mL in 1×PBS) was subjected to various temperatures ranging from 4° C. to 84° C. for one hour. The thermally treated psoriasin was subsequently used in a microbial growth inhibition test based on standardized protocols M27 (yeasts) and M38 (filamentous fungi) of the Clinical and Laboratory Standards Institute.

Aspergillus flavus [4] = experiment: Microbial Growth Inhibition Test, broth microdilution optical method; type: cell-based
Protocol: as §1
In addition, ethyl lauroyl arginate (LAE), a commercially available food preservative, was tested in similar growth conditions as a reference.

[5] = tested on: microbial load of hummus salad; experiment: Shelf life of hummus salad at pH 4.8; type: cell-based; details: pH 4.8, stored at 6° C, psoriasin 0.2%
Protocol: The ability of psoriasin to extend the shelf life of a hummus salad preparation was examined. A commercially-available preparation that is acidified at pH 4.8 and to which 0.2% potassium sorbate was added in order to ensure food safety was compared to a hummus salad at the same pH with and without the addition of psoriasin at the same concentration. No antibiotics were added and there was no addition of mold, yeast or bacteria to the preparation.
Samples were stored at 6° C. and total CFU counts were performed on days 0, 12, 26, and 62 by plating on LB and PDA agar petri dishes. Photos (i.e., visual inspection) were taken every 7 days. As is evident from FIG. 14A, psoriasin extended the shelf life of the hummus salad at pH 4.8 by 2 months.

Candida albicans [6] = experiment: Dose-response growth assay in 96 well plates, C. albicans in RPMI-MOPS (also zinc and pH variation); type: cell-based
Protocol: C. albicans were seeded on 10 cm plates of YAG-agarose for 1-2 days in a humidified incubator at 30° C. C. albicans colonies were used for 48 hours after their appearance before disposal.
as §2
In Example 4, several ZnCl2 concentrations were added to 1 μM of His-psoriasin.
In Example 5, RPMI-MOPS was titrated to the different pH levels using 1M NaOH solution (RMPI-MOPS, initial pH ~4).
In order to evaluate the ability of recombinant His-psoriasin to inhibit the growth of Candida albicans, a single colony/10 ml was incubated in a RPMI-MOPS medium with variable concentrations of psoriasin added to each well. Fungi growth was monitored using an absorbance plate reader every 10 minutes at 600 nm. No apparent growth was measured in psoriasin concentrations higher than 300 nM for C. albicans (FIG. 2).
In order to test the effect of zinc ions on the ability of psoriasin to inhibit fungal growth, Candida albicans was incubated in a RPMI-MOPS medium in the presence of 1 μM psoriasin with variable concentrations of ZnCl2.
Candida albicans was incubated in a RPMI-MOPS medium in the presence of 10 μM His-psoriasin at variable pHs. […] Accordingly, effective anti-fungal activity of His-psoriasin can be obtained also at pH levels that are lower than pH=8.

C. albicans = experiment: Fungal growth in natural apple and beetroot juice; type: cell-based, Candida albicans; details: pH=7, 40 μM and 400 μM
Protocol: Natural beetroot and apple juice without preservatives, was diluted ×0.5 with PBS×1 to avoid high background absorbance. The juice was titrated to pH=7.4 with 1M NaOH, inoculated with C. albicans (1 colony/10 ml), treated with 40 μM and 400 μM His-psoriasin, and monitored with the same measuring program as the RPMI-MOPS experiments. In order to evaluate the effect of His-psoriasin on fungal growth in juice, natural apple and beetroot juices were inoculated without any preservatives with C. albicans. The samples were titrated to pH=7 and treated with 40 μM and 400 μM of recombinant His-psoriasin. The samples were placed in a 96 well-plate and absorbance at 600 nm was monitored vs. time.

B1: psoriasin: Recombinant human psoriasin (S100a7) containing a histidine tag, amino acid sequence SEQ ID NO: 11, expression vector pET-28a (protein, listed as Homo sapiens)
chain: MSNTQAERSIIGMIDMFHKYTRRDDKIEKPSLLTMMKENFPNFLSACDKKGTNYLADVFEKKDKNEDKKIDFSEFLSLLGDIATDYHKQSHGAAPCSGGSQ
Molecule B1 has an IC90 (Candida albicans [1]) of 0.5 µM, an IC90 (Lactobacillus saeki) of 50 µM and an IC90 (Escherichia coli) of 100 µM. The IC90 (Lactococcus lactis) was 45 µM, the IC90 (Enterobacter cloacae) was 28 µM and the IC90 (Listeria monocytogenes) was 75 µM. For the same molecule, the “psoriasin concentration above which no apparent growth was measured” value (Aspergillus flavus [2]) was “higher than 375 nM”, the “inhibitory properties after thermal treatment” value [3] was “maintained its inhibitory properties” and the IC90 (Aspergillus flavus [4]; Aspergillus flavus, RPMI-MOPS) was 0.6 µM. For the same molecule, the “inhibition of A. flavus growth” value (Aspergillus flavus [4]; concentrations of 0.325 μM and above) was “nearly all growth”, the “inhibition of detectable A. flavus growth” value (Aspergillus flavus [4]; concentrations of 0.6 μM and above) was 100% and the “extension of shelf life of hummus salad” value [5] was 2 months. For the same molecule, the “C. albicans proliferation at variable pHs” value (Candida albicans [6]; 10 μM His-psoriasin, RPMI-MOPS) was “prevent C. albicans proliferation at all the tested pH levels”, the “psoriasin concentration above which no apparent growth was measured” value (Candida albicans [6]; C. albicans single colony/10 ml, RPMI-MOPS, absorbance 600 nm) was “higher than 300 nM” and the “ZnCl2 concentration above which the fungi retained their full ability to grow” value (Candida albicans [6]; in the presence of 1 μM psoriasin) was “above 1.2 μM”. The “fungal proliferation in juice” value (C. albicans) was “not able to proliferate”.
